Data taken from patent publication US20160130569, “A LAGLIDADG HOMING ENDONUCLEASE CLEAVING THE T CELL RECEPTOR ALPHA GENE AND USES THEREOF” (CELLECTIS, published 2016).

T1: I-OnuI wild type (OnuWT) (Ophiostoma novo-ulmi)
T1 chain: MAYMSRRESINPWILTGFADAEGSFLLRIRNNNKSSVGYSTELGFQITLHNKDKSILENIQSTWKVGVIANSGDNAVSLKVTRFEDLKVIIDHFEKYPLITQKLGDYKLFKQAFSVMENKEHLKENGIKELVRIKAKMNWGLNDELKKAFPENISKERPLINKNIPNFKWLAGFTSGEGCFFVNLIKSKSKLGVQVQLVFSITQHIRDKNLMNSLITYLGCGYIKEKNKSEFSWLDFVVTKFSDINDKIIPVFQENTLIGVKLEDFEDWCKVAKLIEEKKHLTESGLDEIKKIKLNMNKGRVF

T2: TCRA_S02_2E5 (Ophiostoma novo-ulmi (engineered))
T2 chain: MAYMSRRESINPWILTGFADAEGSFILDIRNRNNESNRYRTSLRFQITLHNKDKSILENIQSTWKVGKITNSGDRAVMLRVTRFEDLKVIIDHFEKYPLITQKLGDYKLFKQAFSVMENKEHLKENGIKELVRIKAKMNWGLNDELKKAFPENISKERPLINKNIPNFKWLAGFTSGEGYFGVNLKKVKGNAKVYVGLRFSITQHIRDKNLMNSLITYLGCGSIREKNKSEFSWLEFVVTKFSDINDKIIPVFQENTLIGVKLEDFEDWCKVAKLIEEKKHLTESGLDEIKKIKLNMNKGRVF


Tests used:
[1] = biological target: T1, I-OnuI wild type (OnuWT); assay: flow; yeast surface display titration; conditions: label: Alexa Fluor 647
Procedure: (§1) Samples of yeast displaying each LHE variant were independently incubated with increasing concentrations of fluorescent dye-labeled synthetic DNA substrates (y-axis). An antibody to a C-terminal epitope was also included (x-axis) such that DNA binding activity could be normalized to the amount of LHE protein expressed on the yeast surface, creating the co-linear pattern, with higher signal in the y-axis per x-axis signal where affinity is greater.
(§2) The LHE containing the engineered DNA recognition interfaces for the TCRA_S02 (SEQ ID NO: 3) target was tested for affinity, specificity, and toxicity characteristics. Affinity was tested by independently incubating yeast displaying the TCRA_S02_2E5_RD1_08 variant, (SEQ ID NO: 7, encoding SEQ ID NO: 8) with DNA substrates containing its target sequences at various concentrations. See FIG. 6 showing the affinity properties of this variant relative to the wild-type I-Onul protein. […] Toxicity was analyzed by in vitro transcribing each LHE into mRNA and transfecting primary human T cells by electroporation, followed by flow cytometry analysis of the survival of the cells relative to transfection with a control mRNA encoding a blue fluorescent protein (BFP).

[2] = biological target: T2, TCRA_S02_2E5; assay: flow; yeast surface display titration; Example 3 text names the variant as TCRA_S02_2E5_RD1_08; conditions: label: fluorescent dye (Alexa Fluor 647) in yeast display assays
Procedure: as §1
as §2, with “(BFP). […]” for “(BFP).”

Binder	Kd [1] [pM]	Kd [2] [pM]
I-OnuI native target (dsDNA) DNA 1: TTTCCACTTATTCAACCTTTTA DNA 2: TAAAAGGTTGAATAAGTGGAAA	~80	–
TCRA_S02 (dsDNA) DNA 1: TGTCTGCCTATTCACCGATTTT DNA 2: AAAATCGGTGAATAGGCAGACA	–	~90
